From patent publication US20110201105A1, “LACTATION-ASSOCIATED POLYPEPTIDES” (Dairy Australia Limited, priority 2007, published 2011)
Entries after “also recorded” stand apart in the source; their conditions may differ.

Assays:
trefoil 1 = experiment: Induction of trefoil proteins in AGS cells (peroxidase immunodetection); assay type: cell-based, human
Method: FIGS. 11A and B: Peroxidase assay for trefoil activity. Supematants of HEK293 cells expressing tammar mammary clones were applied to the human gastric epithelial cell line, AGS, for 48 hours. The resultant AGS cell conditioned media containing stimulated AGS cell secreted proteins, and the AGS cells, were lysed. Samples of the AGS cell secreted proteins and cell lysates, and a recombinant positive control were transferred to a solid support and probed using a rabbit anti-trefoil 1 antibody and a secondary goat anti-rabbit antibody conjugated to horse radish peroxidase was used to detect the trefoil 1. A: Detection of secreted trefoil 1 in supematants from stimulated AGS cells. B: Detection of expression of trefoil 1 in stimulated AGS cell lysate samples.
In addition, supernatants of HEK293 cells expressing tammar mammary clones were applied to the human gastric epithelial cell line, AGS, for 48 hours. The resultant AGS cell conditioned media containing stimulated AGS cell secreted proteins (i.e. supernatant) were collected and the AGS cells were lysed. […]

[1] = test system: mouse embryonic stem (ES) cells; experiment: Cellular differentiation assay, mouse ES cells with Oct4-βgal transgene; assay type: cell-based; conditions: tammar wallaby polypeptides, LIF 1000 U/ml, 1:5 dilution, 48 hours (FIG. 7)
Method: FIG. 7. Cellular differentiation assay. To determine the ability of LAMs to influence cell differentiation, mouse embryonic stem (ES) cells were cultured in the presence of leukemia inhibitory factor (LIF) 1000 U/ml and the LAM in question a 1 in 5 dilution of the secreted polypeptides and cultured for 48 hours. […] This figure contains Panel A (Negative control) and Panels B to L (Presence of a LAM for which one LAM polypeptide is represented in one panel).
To determine the ability of LAMs to influence cellular differentiation, mouse embryonic stem (ES) cells were cultured in the presence of a leukemia inhibitory factor (LIF) 1000 U/ml and a 1:5 dilution of the secreted polypeptide LAMs for 48 hours.

p38 MAPK = p38 MAPK assay of inflammatory activity in RAW macrophage cells; assay type: cell-based
Method: Plasmids containing Tammar wallaby LAMs were directionally cloned into the expression vector pCMV Sport 6.0, and then transfected into the human kidney cell line HK293. A total of 1 μg of LAM-containing plasmid DNA and 10 ng of pEGFP-C1 plasmid was introduced into 70% confluent HK293 cells in 2 cm^2 wells containing 500 ul of opti-MEM-1 media. Transfection success was assessed by observing green fluorescence of cells by fluorescent microscopy. After 48 hours conditioned media containing the secreted polypeptide was collected and frozen at −20° C. The media containing the secreted polypeptides was then used directly in a variety of bioactivity assays. For the assays described below, samples of secreted polypeptides were aliquoted into individual wells of 96 or 384 well plates and stored, prior to assaying, either frozen or lyophilized.
A negative control created by transfection with an insertless vector was used in all assays. For the assays described in Examples 4A, 4B, 4C and 4D results for samples were in the form of relative fluorescence units (RFU) as described herein. […] In some cases, RFU less than two standard deviations from the mean were considered significant if the LAM sample in question produced a positive result in another assay. […]
Activation of p38 MAPK was assessed in RAW macrophage cells. […]

chicks = experiment: Chick growth assay (in ovo injection, weight at hatching); assay type: in vivo
Method: FIG. 5. Chick growth assay by measuring weight. 10 LAMs (being bovine homologues having homology to specific Tammar ESTs), 3 known bovine cathelicidins, and four bovine cathelicidin variants were tested. Conditioned media containing a LAM polypeptides or bovine cathelicidins or variants thereof was diluted in a total of 1 ml of normal saline. Eggs on day 16 of incubation were injected with 1 ml of the media containing the into the broad end of the egg. Chicks were weighed on day of hatching. The overall condition of the chick was assessed including the possible presence of stumpy legs and/or loss of down feathers.
Conditioned media containing LAM polypeptides or bovine cathelicidins or variants thereof were diluted in a total of 1 ml of normal saline. Eggs on day 16 of incubation were injected in ovo with 1 ml of LAM polypeptides or bovine cathelicidins or variants thereof into the broad end of the egg. Chicks were weighed on day of hatching. Controls included saline only, or saline and 10 mg/ml of a peptide as a random peptide control.
As set out in Table 23, the left column indicates the polypeptide used in the assay while the right column contains chick weight in grams as a measurement of chick growth. Bolded numbers represent a chick(s) larger than the controls and more than 2 standard deviations from the mean. In addition, bolded numbers represent chicks that have been killed. The mean represents the weight of all the chicks tested within this experiment.

ERK1/2 = ERK1/2 activation in Swiss 3T3 cells by bovine polypeptides; assay type: cell-based; conditions: cell supernatants containing bovine polypeptide, listed as CAMP
Method: Swiss 3T3 cells were treated with cell supematants containing bovine TCN 1 polypeptide. […] An increase in relative fluorescence units over the control indicates ERK activation.
Aliquots of the CRC-IDP samples were used to activate HSC-2 cells in a 96 well plate. Confluent and serum-starved cells were presented with the samples at a final dilution of 1:2. Cells were also stimulated with an internal control for activation of cells (Stim=10% serum) or left unstimulated (unstim). After 10 minutes with the CRC-IDP samples or control stimulus, cells were lysed and assayed for ERK activation using TGR's proprietary assay technology (SureFire). FIG. 12 presents the results as the mean+/−SEm of 3 separate samples. The data is from a single experiment.

[2] = test system: bovine mammary epithelial cells; experiment: Cellular morphology assay, bovine mammary epithelial cells; assay type: cell-based; conditions: 1:5 dilution of secreted polypeptide, 48 hours (FIG. 6)
Method: FIG. 6. Cellular morphology assay. To determine the ability of LAMs to influence cellular morphology, bovine mammary epithelial cells were plated onto a extracellular matrix and the cells were subsequently allowed to migrate to form mammospheres in the presence or absence of each LAM. The figure contains Panel A (Negative control) and Panels B to G (Presence of a LAM for which one LAM polypeptide is represented in one panel).
Candidate LAM polypeptides that are able to regulate the function and differentiation of the mammary gland were screened by culturing bovine mammary epithelium in the presence of a 1:5 dilution of the secreted polypeptide LAMs for 48 hours as described for the TGR assays in Example 4. Cells were examined microscopically for gross morphological changes and for their ability to induce cell differentiation.

mouse ES cells = experiment: Cell growth with cathelicidins in mouse ES cells; assay type: cell-based; set-up: cell growth Rep. 1 / cell growth Rep. 2 / cell growth Rep. 3 / cell growth Mean: unit not given here; conditions: 24 hours
Method: Mouse ES cells were plated at 50 percent confluency and cultured for 24 hours in a 1:10 dilution of serum and antibiotic free Optimem and media conditioned with cathelicidin associated polypeptides. The medium was removed and then washed gently for 2 minutes with Mg^2+- and Ca^2+-free phosphate buffered saline 0.05% Trypsin and 1:5000 Versene to disrupt cell aggregates. Cells were collected by scraping and washed twice by resuspension in complete medium followed by centrifugation. The cells were again resuspended and counted in triplicate using a Luber haemocytometer.
(§1) The cells were counted in triplicate using a Luber haemocytometer. The negative control was media alone (i.e. conditioned media […] insertless vector). The samples were deemed statistically significant using a t-test comparing the control with the sample if the values of cell growth were 2 standard deviations higher than the mean of the negative control.

HC11 cells = experiment: Cell growth with cathelicidins in HC11 cells; assay type: cell-based, mouse; set-up: cell growth Rep. 1 / cell growth Rep. 2 / cell growth Rep. 3 / cell growth Rep. 4 / cell growth Mean: unit not given here; conditions: 72 hours
Method: FIG. 2. Cellular growth assay with HC11 cells. Mouse mammary epithelial cells, HC11 cells, were grown in media conditioned with: mock transfection (control), LAM32, LAM32a or LAM32b for 72 hours. Samples were performed in triplicate and the cells from each triplicate counted in triplicate. […] LAM 32 is represented as set forth in SEQ ID NO: 188, and two splice variants thereof, designated LAM32a and 32b as set forth in SEQ ID NO: 215 and 207 respectively.
As shown in FIG. 2 equal numbers of mouse mammary HC11 cells were grown in the presence of either a negative control or tammar wallaby cathelicidin-associated polypeptide, namely LAM 32 (SEQ ID NO: 188), LAM 32a (SEQ ID NO: 215) or LAM 32b (SEQ ID NO: 207) in order to determine the effect of these LAMs on cellular growth.
HC11 cells were initially plated at 50 percent confluency and cultured for 72 hours in a 1:10 dilution of serum and antibiotic free Optimem and media conditioned with cathelicidin associated polypeptides. The medium was removed and then washed gently for 2 minutes with Mg^2+- and Ca^2+-free phosphate buffered saline (PBS), 0.05% Trypsin and 1:5000 Versene to disrupt cell aggregates. Cells were collected by scraping and washed twice by resuspension in complete medium followed by centrifugation. The cells were again resuspended and counted in triplicate using a Luber haemocytometer.
as §1

Molecule	Trefoil-inducing activity: Function (trefoil 1; 48 hours, trefoil 1 in supernatant (secretion) and cell lysate (expression))	trefoil 1 expression and/or secretion (trefoil 1; Table 16)	cellular differentiation [1]	RFU (p38 activation, pro-inflammatory activity) (p38 MAPK; 30 minutes, Mean RFU 12253, SD RFU 7395, negative control 11004 RFU)	pro-inflammatory activity (RFU significantly above the mean) (p38 MAPK; text summary of Tables 12 and 13)	chick size versus controls (chicks; body weight relative to mean/median of all chicks tested)	Chick weight (chicks; bovine polypeptides in conditioned media, 1 ml in ovo on day 16 of incubation, weighed on day of hatching, Saline 51.0)	ERK1/2 activation (ERK1/2)	influence on cellular morphology [2]	cell growth Rep. 1 (mouse ES cells; 1:10 dilution conditioned media, -ve control 0.34)	cell growth Rep. 3 (mouse ES cells; -ve control 0.352)	cell growth Rep. 2 (mouse ES cells; -ve control 0.474)	cell growth Mean (mouse ES cells; -ve control mean 0.388666667)	cell growth Rep. 1 (HC11 cells; 1:10 dilution conditioned media, -ve control 0.727)	cell growth Rep. 2 (HC11 cells; -ve control 0.76)	cell growth Rep. 3 (HC11 cells; -ve control 0.786)	cell growth Rep. 4 (HC11 cells; -ve control 0.808)	cell growth Mean (HC11 cells; -ve control mean 0.77025)	cell growth versus control (significance) (HC11 cells; P<0.05 t-test)
LAM 19: EBP: Emopamil binding protein (sterol isomerase); tammar polypeptide SEQ ID NO 49, bovine SEQ ID NO 109 (protein, X: residue not identified in the source; ends and bridges not checked) MTTNTSPMHPYWPRHLRLDNFVPNDYPTWHILAGLFSVSGVLVVATWLLSGRAAVVPLGTWRRLSLCWFAVCGFIHLVIEGWFSLYHADLLGDQAILSQLWKEYAKGDSRYILNDNFMICMETVTAYLWGPLSLWVVIAFLRHQPLRFVLQLVVSMGQVYGDVLYFLTEYRDGFQHGELGHPLYFWFYFVFLNSLWLVVPGLLILDSIKQLAHAQSILDAKAPKAKSKQXLKSDELGLNTGYEELSTYQKIPILAPTGRKDKLN	enhanced expression and secretion	enhance trefoil 1 expression in AGS cells as well as enhance the secretion of trefoil 1	induced cellular differentiation	66112 RFU	pro-inflammatory activity	falls just outside 2 standard deviations from the median of chick weights	57.1 grams	–	–	–	–	–	–	–	–	–	–	–	–
LAM 32: Cathelicidin antimicrobial peptide; tammar wallaby polypeptide SEQ ID NO 188, bovine SEQ ID NO 220 (protein) QALSYREAVLRAVDQLNEQSSEPNIYRLLELDQPPQDDEDPDSPKRVSFRVKETVCSRTTQQPPEQCDFKENGLLKRCEGTVTLDQVRGNFDITCNNHQSIRITKQPWAPPQAARLCRIVVIRVCR	–	–	–	–	–	–	–	activates ERK1/2; also recorded: ERK1/2 activation	induced a significant change in quaternary structure and/or cellular morphology	0.721	0.784	0.548	0.6843	0.985	0.927	0.968	1.026	0.9765	significantly more cells
